Experimental findings from patent US20260146093A1 (DREN BIO MANAGEMENT, published 2026) are described below.

In experiment [1] the target is T1, human Dectin-1 isoform A on HEK-Blue hDectin-1a cells (human, UniProt Q9BXN2 1-247).
T1 sequence: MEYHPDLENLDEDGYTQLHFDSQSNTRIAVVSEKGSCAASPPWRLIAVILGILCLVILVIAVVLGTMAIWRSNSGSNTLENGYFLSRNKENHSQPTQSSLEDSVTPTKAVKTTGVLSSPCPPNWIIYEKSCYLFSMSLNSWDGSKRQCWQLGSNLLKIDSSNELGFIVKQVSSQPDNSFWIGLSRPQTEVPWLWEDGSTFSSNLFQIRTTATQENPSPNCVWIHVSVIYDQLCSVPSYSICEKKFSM
The experiment is described as follows: cell-based or functional assay.

Experiment [2] concerns the target T2, human Trop-2 expressed on cells (A-431, NCI-N87, SKBR3, CHO-K1-hTrop2) (human, UniProt P09758 27-323).
T2 sequence: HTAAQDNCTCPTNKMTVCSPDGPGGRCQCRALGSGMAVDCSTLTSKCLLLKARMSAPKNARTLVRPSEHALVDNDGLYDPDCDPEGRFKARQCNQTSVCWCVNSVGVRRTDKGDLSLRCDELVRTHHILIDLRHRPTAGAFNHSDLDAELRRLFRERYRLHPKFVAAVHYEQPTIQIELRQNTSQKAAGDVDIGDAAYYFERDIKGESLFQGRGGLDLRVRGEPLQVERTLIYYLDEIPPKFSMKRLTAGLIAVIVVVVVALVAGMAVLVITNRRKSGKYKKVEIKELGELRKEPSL
Nature of the experiment: flow cytometry on CHO-K1 cells expressing hTrop-2 (sheet title: Binding to Chok1 hTrop2).

Experiment [3] deals with T2, human Trop-2 expressed on cells (A-431, …). Nature of the experiment: flow cytometry on A431 cells expressing hTrop-2.
Experiment [4] addresses T1, human Dectin-1 isoform A on HEK-Blue …. Nature of the experiment: cell-based or functional assay. The source holds these as a separate data set.
In experiment [5] the target is human Dectin-1 on HEK cells expressing hDectin-1 (human) (UniProt Q9BXN2). Nature of the experiment: flow cytometry on HEK cells expressing hDectin-1 (sheet title: Binding to hDec1 on Hek).
Experiment [6] concerns the target T2, human Trop-2 expressed on cells (A-431, …). Nature of the experiment: flow cytometry on SKBR3 cells, fluorescent anti-human secondary antibody. On the procedure:
(§1) FIGS. 2A-2D show binding assays in which cells expressing human Trop-2 were incubated with anti-Dectin-1 x anti-Trop-2 bispecific antibodies with human IgG1 Fc (as indicated) or isotype control, and binding was measured by flow cytometry using a fluorescently labeled anti-human secondary antibody. Shown are binding of the indicated antibodies to human epidermoid carcinoma A-431 cells (FIG. 2A), human gastric carcinoma NCI-N87 cells (FIG. 2B), human breast cancer SKBR3 cells (FIG. 2C), or CHO-K1 cells expressing human Trop-2 (FIG. 2D).
(§2) Human cancer cell lines and CHO cells expressing human Trop-2 (CHO-K1-hTrop2 cells) were incubated with the anti-Dectin-1 x anti-Trop-2 bispecific antibodies, Trop-2 clones 15, 45, 76, 77, 63, 64, 65 and 123, or the hIgG1 isotype, followed by a fluorescent anti-human secondary antibody. The primary antibodies were used in an 8-point serial dose titration starting at 300 or 100 nM and diluted 1 to 3.

Experiment [7] addresses T1, human Dectin-1 isoform A on HEK-Blue …. The experiment is described as follows: cell-based or functional assay. The source holds these as a separate data set.
Experiment [8] has as its target T2, human Trop-2 expressed on cells (A-431, …). The experiment is described as follows: flow cytometry on CHO-K1-hTrop2 cells, fluorescent anti-human secondary antibody. On the procedure:
as §1, §2

For experiment [9] the target is unchanged. The experiment is described as follows: flow cytometry on A-431 cells, fluorescent anti-human secondary antibody. On the procedure:
as §1, §2

The target is the same in experiment [10]. Nature of the experiment: cell-based or functional assay.
The target in another experiment is T3, Human Trop-2 ECD protein (human, UniProt P09758 27-274).
T3 construct: also called hTrop-2 ECD; not shown: HIS tag (captured on the biosensor via anti-HIS Tag)
T3 sequence: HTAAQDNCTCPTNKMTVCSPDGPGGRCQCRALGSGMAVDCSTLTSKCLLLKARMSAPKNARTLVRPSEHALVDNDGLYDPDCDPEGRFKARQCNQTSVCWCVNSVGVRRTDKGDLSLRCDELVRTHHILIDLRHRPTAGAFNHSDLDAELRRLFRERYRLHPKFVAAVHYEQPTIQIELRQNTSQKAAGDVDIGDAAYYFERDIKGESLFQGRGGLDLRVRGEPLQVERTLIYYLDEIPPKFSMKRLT
The experiment is described as follows: BLI, hTrop-2 ECD captured via anti-HIS Tag, bispecific antibody in solution (monovalent). The method, then: Monovalent binding affinity was measured by biosensor (BLI). Human Trop-2 ECD protein was captured on biosensor via anti-HIS Tag. On and off rate binding was measured against bispecific antibodies with 1 arm binding to hTrop2 at varying concentrations. On rate and off rate measurements were fitted to generated KD values.
Monovalent binding affinity of each anti-Dectin-1 x anti-Trop-2 bispecific antibody to the human Trop-2 ECD was also measured by biosensor (BLI).

In experiment [11] the target is T2, human Trop-2 expressed on cells (A-431, …). The experiment is described as follows: flow cytometry on NCI-N87 cells, fluorescent anti-human secondary antibody. The method, then: as §1, §2

Like-named read-outs stand apart in the source and are kept apart here.

B1: Dectin-1 2M24.124 x Trop-2 clone C hIgG1 (bispecific antibody)
anti-Dectin-1 heavy chain: QVQLVQSGAEVKKPGASVKVSCKASGYTFTDYYMHWVRQAPGQGLEWMGWINPNEGDTNYAQKFEGRITMTRDTSISTAYMELSRLRSDDTAVYYCARNTGAYSFGYWGCGTLVTVSS
anti-Dectin-1 light chain: DIQMTQSPSSVSASVGDRVTITCRASQGISSWLAWYQQKPGKCPKLLIYGASDLQSGVPSRFSGSGSGTDFTLTISSLQPEDFATYYCQQAYGFPFTFGPGTKVDIK
anti-Trop-2 heavy chain: QVQLVQSGSELKKPGASVKLSCKASGYTFTSYGMNWVRQAPGQGLEWMGWINTNTGNPTYAQGFTGRFVFSLDTSVSTAYLQISSLKAEDTAVYYCARGYNWNDGDFDYWGQGTLVTVSS
anti-Trop-2 light chain: AIQMTQSPSSLSPSVGDRVTITCRASQGIRNDLGWYQQKPGKAPKLLIFAASSLQSGVPSRFSGSGSGTDFTLTISNLQPEDFATYYCLQNYNYPLTFGGGTKVEIK
notes: member of group m9; also called 2M24.124xTrop-2 clone C hG1; disulfide-engineered Fab-format bispecific, clone C
Turning to B1, the “EC50 of SEAP secretion by the hDectin-1 reporter cells (hDec1 Reporter Assay; the Trop-2-expressing cell line is not named)” value in experiment [1] worked out at 0.69 nM. Besides, in experiment [2], the “EC50 (read off the curve)” value was around 9 nM.

B2: Dectin-1 2M24.131 x Trop-2 clone A hIgG1 (bispecific antibody)
anti-Dectin-1 scFv-Fc arm: QVQLVQSGAEVKKPGASVKVSCKASGYTFTDYYMHWVRQAPGQGLEWMGWINPNEGDTNYAQKFEGRITMTRDTSISTAYMELSRLRSDDTAVYYCARNTGAYSFGYWGCGTLVTVSSGGGGSGGGGSGGGGSGGGGSDIQMTQSPSSVSASVGDRVTITCRASQGISSWLAWYQQKPGKCPKLLIYGASDLQSGVPSRFSGSGSGTDFTLTISSLQPEDFATYYCQQAYGFPFTFGPGTKVDIKEPK
anti-Trop-2 heavy chain: QVQLQQSGSELKKPGASVKVSCKASGYTFTNYGMNWVKQAPGQGLKWMGWINTYTGEPTYTDDFKGRFAFSLDTSVSTAYLQISSLKADDTAVYFCARGGFGSSYWYFDVWGQGSLVTVSS
anti-Trop-2 light chain: DIQLTQSPSSLSASVGDRVSITCKASQDVSIAVAWYQQKPGKAPKLLIYSASYRYTGVPDRFSGSGSGTDFTLTISSLQPEDFAVYYCQQHYITPLTFGAGTKVEIK
notes: member of group m8; also called 2M24.131xTrop-2 clone A hG1; scFv-format anti-Dectin-1 x anti-Trop-2 bispecific, clone A
With B2, in experiment [3], the binding result is given as “binds”. Further, in [4], the “EC50 of SEAP secretion by the hDectin-1 reporter cells (hDec1 Reporter Assay; the Trop-2-expressing cell line is not named)” value came out at 1.46 nM. Also, the EC50 (read off the curve) in experiment [5] came to 4 nM.

B3: Dectin-1 2M24.131 x Trop-2 clone C hIgG1 (bispecific antibody)
anti-Dectin-1 scFv-Fc arm: QVQLVQSGAEVKKPGASVKVSCKASGYTFTDYYMHWVRQAPGQGLEWMGWINPNEGDTNYAQKFEGRITMTRDTSISTAYMELSRLRSDDTAVYYCARNTGAYSFGYWGCGTLVTVSSGGGGSGGGGSGGGGSGGGGSDIQMTQSPSSVSASVGDRVTITCRASQGISSWLAWYQQKPGKCPKLLIYGASDLQSGVPSRFSGSGSGTDFTLTISSLQPEDFATYYCQQAYGFPFTFGPGTKVDIKEPK
anti-Trop-2 heavy chain: QVQLVQSGSELKKPGASVKLSCKASGYTFTSYGMNWVRQAPGQGLEWMGWINTNTGNPTYAQGFTGRFVFSLDTSVSTAYLQISSLKAEDTAVYYCARGYNWNDGDFDYWGQGTLVTVSS
anti-Trop-2 light chain: AIQMTQSPSSLSPSVGDRVTITCRASQGIRNDLGWYQQKPGKAPKLLIFAASSLQSGVPSRFSGSGSGTDFTLTISNLQPEDFATYYCLQNYNYPLTFGGGTKVEIK
notes: member of group m8; also called 2M24.131xTrop-2 clone C hG1; scFv-format anti-Dectin-1 x anti-Trop-2 bispecific, clone C
With B3, the binding result in experiment [3] is given as “binds”. Also, the “EC50 of SEAP secretion by the hDectin-1 reporter cells (hDec1 Reporter Assay; the Trop-2-expressing cell line is not named)” value in experiment [4] came out at 1.49 nM. The EC50 (read off the curve) in experiment [5] stood at 3 nM.

B4: 2M24 × Trop-2 clone A hG1 (bispecific antibody, V domains shown)
VH 1: QVQLVQSGAEVKKPGASVKVSCKSSGYTFTDYYIHWVRQAPGQGLEWMGWINPNSGDTNYAQKFQGRITMTRDTSISTAYLELSRLRSDDTAVFYCARNSGSYSFGYWGQGTLVTVSS
VL 1: DIQMTQSPSSVSASVGDRVTITCRASQGISSWLAWYQQKPGKAPKLLIFGASSLQSGVPSRFSGSGSGTDFTLTVSSLQPEDFATYYCQQAYSFPFTFGPGTKVDIE
VH 2: QVQLQQSGSELKKPGASVKVSCKASGYTFTNYGMNWVKQAPGQGLKWMGWINTYTGEPTYTDDFKGRFAFSLDTSVSTAYLQISSLKADDTAVYFCARGGFGSSYWYFDVWGQGSLVTVSS
VL 2: DIQLTQSPSSLSASVGDRVSITCKASQDVSIAVAWYQQKPGKAPKLLIYSASYRYTGVPDRFSGSGSGTDFTLTISSLQPEDFAVYYCQQHYITPLTFGAGTKVEIK
notes: also called anti-Dectin-1 x anti-Trop-2 bispecific antibody
In experiment [6], B4 showed an EC50 of 18.5 nM. In [7], the “Dectin-1 pathway activation (SEAP secretion), HEK-Blue hDectin-1a cells in the presence of A-431 cells, EC50” value was determined as 0.05 µg/mL; the “Dectin-1 pathway activation (SEAP secretion), HEK-Blue hDectin-1a cells in the presence of CHO-K1-hTrop2 cells, EC50” value is 0.06 µg/mL; the “Dectin-1 pathway activation (SEAP secretion), HEK-Blue hDectin-1a cells in the presence of NCI-N87 cells, EC50” value amounted to 0.04 µg/mL; the “Dectin-1 pathway activation (SEAP secretion), HEK-Blue hDectin-1a cells in the presence of SKBR3 cells, EC50” value was 0.04 µg/mL. Further, the EC50 in experiment [8] is 3.78 nM. The EC50 in [9] was 6.12 nM. Also, in experiment [10], the “Induction of phagocytosis in vitro of A-431 cells by human macrophages, EC50” value was 0.31 nM; the “Induction of phagocytosis in vitro of NCI-N87 cells by human macrophages, EC50” value worked out at 0.2 nM; the “Induction of phagocytosis in vitro of SKBR3 cells by human macrophages, EC50” value stood at 0.507 nM. In the experiment with Human Trop-2 ECD protein, this molecule gave a Kd of 4.12 nM, a koff of 0.000891 s⁻¹ and a kon of 217000 M⁻¹ s⁻¹. Also, the midpoint of the response in experiment [11], the EC50, lay at 11.7 nM.

B5: Dectin-1 2M24.131 x Trop-2 clone B hIgG1 (bispecific antibody)
anti-Dectin-1 scFv-Fc arm: QVQLVQSGAEVKKPGASVKVSCKASGYTFTDYYMHWVRQAPGQGLEWMGWINPNEGDTNYAQKFEGRITMTRDTSISTAYMELSRLRSDDTAVYYCARNTGAYSFGYWGCGTLVTVSSGGGGSGGGGSGGGGSGGGGSDIQMTQSPSSVSASVGDRVTITCRASQGISSWLAWYQQKPGKCPKLLIYGASDLQSGVPSRFSGSGSGTDFTLTISSLQPEDFATYYCQQAYGFPFTFGPGTKVDIKEPK
anti-Trop-2 heavy chain: QVQLQESGPGLVKPSGTLSLTCAVSGGSISSSNWWSWVRQPPGKGLEWIGEIYHDGSTDYFPSLKSRVTISVDKSKNQFSLKLSSVTAADTAVYYCARDNWGFDYWGQGTLVTVSS
anti-Trop-2 light chain: DIVLTQSPGTLSLSPGERATLSCRASQSVSSSYLAWYQQKPGQAPRLLISGASSRATGIPDRFSGSGSGTDFTLTISRLEPEDFAVYYCQQYGSSHRTFGQGTKVEIK
notes: member of group m8; also called 2M24.131xTrop-2 clone B hG1; scFv-format anti-Dectin-1 x anti-Trop-2 bispecific, clone B
Regarding B5, the binding result in experiment [3] is on record as “binds”. Moreover, the “EC50 of SEAP secretion by the hDectin-1 reporter cells (hDec1 Reporter Assay; the Trop-2-expressing cell line is not named)” value in experiment [4] amounted to 0.91 nM. In [5], this molecule returned an EC50 (read off the curve) of 3 nM.
